In patent publication US20250263675A1:

How the values were obtained:
[1] = biological target: recombinant human VEGF (R&D, 293-VE-010) (human) (UniProt P15692); experiment: Octet HTX biolayer interferometry; antibody prepared in conditioned medium at 100 ug/mL, diluted to 10 ug/mL in 1x kinetics buffer, as loading sample; recombinant human VEGF 200 to 3.125 nM (data of FIG. 3B); ka Error printed 8.54E+02
[2] = biological target: recombinant human VEGF (R&D, 293-VE-010) (human) (UniProt P15692); experiment: Octet HTX biosensor, 1x kinetics buffer; antibody at 10 ug/mL in buffer, recombinant human VEGF 200 nM to 3.125 nM
[3] = biological target: recombinant human VEGF (R&D, 293-VE-010) (human) (UniProt P15692); experiment: Octet HTX biosensor; antibody prepared in conditioned medium and diluted to 10 ug/mL in 1x kinetics buffer, recombinant human VEGF 200 nM to 3.125 nM
[4] = biological target: recombinant human VEGF (R&D, 293-VE-010) (human) (UniProt P15692); experiment: Octet HTX biolayer interferometry in 1x kinetics buffer; antibody at 10 ug/mL in buffer as loading sample, recombinant human VEGF 200 to 3.125 nM (data of FIG. 3A); ka Error printed 7.60E+02
[5] = biological target: recombinant human VEGF (R&D, 293-VE-010) (human) (UniProt P15692); experiment: Octet HTX biolayer interferometry in 1x kinetics buffer; antibody at 10 ug/mL in buffer as loading sample, recombinant human VEGF 200 to 3.125 nM (data of FIG. 3A); kdis Error printed 1.34E-07
[6] = biological target: recombinant human VEGF (R&D, 293-VE-010) (human) (UniProt P15692); experiment: Octet HTX biolayer interferometry; antibody prepared in conditioned medium at 100 ug/mL, diluted to 10 ug/mL in 1x kinetics buffer, as loading sample; recombinant human VEGF 200 to 3.125 nM (data of FIG. 3B); kdis Error printed 1.27E-07

Sequence of UniProt P15692 (P15692 other isoform, or with tags, fused parts or gaps limits assumed): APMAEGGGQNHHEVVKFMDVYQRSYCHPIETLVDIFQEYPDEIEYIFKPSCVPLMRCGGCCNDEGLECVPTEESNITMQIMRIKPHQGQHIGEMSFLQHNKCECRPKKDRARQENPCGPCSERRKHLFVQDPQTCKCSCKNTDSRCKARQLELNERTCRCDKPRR

- kon [1]: 286000 M⁻¹ s⁻¹
- Kd [2]: < 1 pM
- Kd [3]: < 1 pM
- kon [4]: 232000 M⁻¹ s⁻¹
- koff [5]: < 1e-07 s⁻¹
- koff [6]: < 1e-07 s⁻¹
Substance: mouse anti-human VEGF monoclonal antibody (R&D, MAB293-100)
